B1: Disabled homolog 2 (Mus musculus), P98078 (parent)
chain: MSNEVETSTTNGQPDQQAAPKAPSKKEKKKGSEKTDEYLLARFKGDGVKYKAKLIGIDDVPDARGDKMSQDSMMKLKGMAAAGRSQGQHKQRIWVNISLSGIKIIDEKTGVIEHEHPVNKISFIARDVTDNRAFGYVCGGEGQHQFFAIKTGQQAEPLVVDLKDLFQVIYNVKKKEEDKKKVEEANKAEENGSEALMTLDDQANKLKLGVDQMDLFGDMSTPPDLNSPTESKDILLVDLNSEIDTNQNSLRENPFLTNGVTSCSLPRPKPQASFLPENAFSANLNFFPTPNPDPFRDDPFAQPDQSAPSSFDSLTSPDQKKASLSSSSTPQSKGPLNGDTDYFGQQFDQLSNRTGKPEAQGGPWPYPSSQTQQAVRTQNGVSEREQNGFHIKSSPNPFVGSPPKGLSVPNGVKQDLESSVQSSAHDSIAIIPPPQSTKPGRGRRTAKSSANDLLASDIFASEPPGQMSPTGQPAVPQSNFLDLFKGNAPAPVGPLVGLGTVPVTPPQAGPWTPVVYSPSTTVVPGAIISGQPPSFRQPLVFGTTPAVQVWNQSPSFATPASPPPPTVWCPTTSVAPNAWSSTSPLGNPFQSNNIFPPPTMSTQSSPQPMMSSVLATPPQPPPRNGPLKDIPSDAFTGLDPLGDKEVKEVKEMFKDFQLRQPPLVPSRKGETPPSGTSSAFSSYFNNKVGIPQEHVDHDDFDANQLLNKINEPPKPAPRQGVLLGTKSADNSLENPFSKGFSSSNPSVVSQPASSDPHRSPFGNPFA

Variants of: B1
Conditions: with sh3k1_human SH3KBP1, Q96B97
sh3k1_human SH3KBP1, Q96B97, sequence (Q96B97 whole entry): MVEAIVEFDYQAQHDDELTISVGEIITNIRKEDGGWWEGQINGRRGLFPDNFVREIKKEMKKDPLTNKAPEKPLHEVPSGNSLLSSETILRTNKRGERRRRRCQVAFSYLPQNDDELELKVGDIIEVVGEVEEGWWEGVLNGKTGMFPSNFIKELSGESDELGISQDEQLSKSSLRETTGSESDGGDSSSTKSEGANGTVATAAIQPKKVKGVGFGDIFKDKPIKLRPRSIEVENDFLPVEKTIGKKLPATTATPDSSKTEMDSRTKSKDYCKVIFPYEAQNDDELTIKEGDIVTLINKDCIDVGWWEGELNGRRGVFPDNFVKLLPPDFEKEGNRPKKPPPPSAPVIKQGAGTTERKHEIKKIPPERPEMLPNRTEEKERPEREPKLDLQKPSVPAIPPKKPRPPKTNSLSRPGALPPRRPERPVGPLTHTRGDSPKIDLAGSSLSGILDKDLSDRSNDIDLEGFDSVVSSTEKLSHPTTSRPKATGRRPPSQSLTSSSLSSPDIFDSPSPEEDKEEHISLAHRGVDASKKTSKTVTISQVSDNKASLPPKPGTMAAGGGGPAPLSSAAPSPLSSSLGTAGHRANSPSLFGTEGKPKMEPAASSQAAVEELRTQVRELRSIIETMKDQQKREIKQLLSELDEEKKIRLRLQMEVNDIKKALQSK

Row | Variant | effect of a mutation on the interaction
1 | R718A | disrupting interaction

Variants of: B1
Conditions: with sh3k1_human SH3KBP1, Q96B97
Remark: another data set of the same source

Row | Variant | effect of a mutation on the interaction
2 | R718A | decreasing interaction

— IntAct's records for PubMed 14596919
